Assay results as given in paper PMC5686162, “Non-canonical activation of OmpR drives acid and osmotic stress responses in single bacterial cells” (Nature Communications, 2017).

How the values were obtained:
[1] = target: EnvZc C277Y (S. Typhimurium) (UniProt P08982); experiment: SEC; gel filtration profiles of EnvZc, EnvZc C277Y, OmpR, (OmpR + EnvZc) and (OmpR + EnvZc C277Y); Superose 12 10/300 GL for EnvZc, AKTA FPLC, 0.5 ml/min, 'suitable buffers'; fractions analysed by SDS-PAGE
[2] = target: OmpR (UniProt P0AA16); experiment: SEC; oligomeric state of OmpR alone under acidic conditions; Hiload 16/60 Superdex 75 pg for OmpR; OmpR buffer exchanged into 20 mM Tris, 200 mM NaCl
[3] = target: T1, EnvZc ( (S. Typhimurium or E. coli …, UniProt P08982 1-450)); experiment: SEC; gel filtration profiles of EnvZc, EnvZc C277Y, OmpR, (OmpR + EnvZc) and (OmpR + EnvZc C277Y); Superose 12 10/300 GL for EnvZc, AKTA FPLC, 0.5 ml/min, 'suitable buffers'; fractions analysed by SDS-PAGE; conditions: both partners purified
T1 construct: EnvZ sensor histidine kinase, cytoplasmic domain (EnvZc); also called wild-type EnvZc; cytoplasmic domain of EnvZ
T1 sequence: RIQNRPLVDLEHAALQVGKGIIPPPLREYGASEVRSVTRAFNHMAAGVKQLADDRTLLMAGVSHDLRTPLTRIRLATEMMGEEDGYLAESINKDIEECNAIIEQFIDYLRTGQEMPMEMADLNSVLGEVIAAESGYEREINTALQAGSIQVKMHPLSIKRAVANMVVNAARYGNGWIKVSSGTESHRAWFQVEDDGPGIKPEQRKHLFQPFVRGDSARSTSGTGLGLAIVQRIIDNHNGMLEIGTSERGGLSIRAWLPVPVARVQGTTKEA

## EnvZc C277Y (from UniProt P08982 1-450) (domain or fragment)
[1]
  stoichiometry N: 2

## OmpR (from UniProt P0AA16 1-239) (natural protein)
[2]
  stoichiometry N: 2

B1: OmpR (natural protein)
chain: MQENYKILVVDDDMRLRALLERYLTEQGFQVRSVANAEQMDRLLTRESFHLMVLDLMLPGEDGLSICRRLRSQSNPMPIIMVTAKGEEVDRIVGLEIGADDYIPKPFNPRELLARIRAVLRRQANELPGAPSQEEAVIAFGKFKLNLGTREMFREDEPMPLTSGEFAVLKALVSHPREPLSRDKLMNLARGREYSAMERSIDVQISRLRRMVEEDPAHPRYIQTVWGLGYVFVPDGSKA
notes: OmpR, response regulator of the EnvZ-OmpR two-component system; The unphosphorylated protein was used in gel filtration; also called His-OmpR; source: E. coli BL21 (DE3), from pET15b, purified
[3]
  stoichiometry N: 2 OmpR molecules per EnvZc dimer
